Kd data for one molecule are collected here from article PMC3322289.

Read-outs that look alike come from different tables or passages of the source.

For test [1], the target named is Angiotensin II, P01019. The experiment in a line: radioligand.
Test [2] has as its target Angiotensin II, P01019. The experiment in a line: radioligand. The source holds these as a separate data set.

Angiotensin II, P01019, sequence (P01019 whole entry, looked up): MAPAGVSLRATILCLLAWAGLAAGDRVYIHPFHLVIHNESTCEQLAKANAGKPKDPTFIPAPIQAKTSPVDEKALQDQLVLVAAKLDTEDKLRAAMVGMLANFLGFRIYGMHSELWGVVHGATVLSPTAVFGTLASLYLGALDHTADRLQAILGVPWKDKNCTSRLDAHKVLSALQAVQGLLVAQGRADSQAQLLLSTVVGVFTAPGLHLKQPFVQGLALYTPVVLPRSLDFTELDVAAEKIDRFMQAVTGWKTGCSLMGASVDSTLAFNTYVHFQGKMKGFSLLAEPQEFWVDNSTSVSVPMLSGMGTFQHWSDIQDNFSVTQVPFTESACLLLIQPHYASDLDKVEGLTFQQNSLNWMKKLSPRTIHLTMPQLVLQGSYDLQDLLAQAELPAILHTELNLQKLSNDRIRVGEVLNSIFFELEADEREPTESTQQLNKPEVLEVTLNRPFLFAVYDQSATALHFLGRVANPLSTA

B1: Angiotensin II type 1 receptor (AT1R), P25095 (protein)
chain: MALNSSAEDGIKRIQDDCPKAGRHSYIFVMIPTLYSIIFVVGIFGNSLVVIVIYFYMKLKTVASVFLLNLALADLCFLLTLPLWAVYTAMEYRWPFGNHLCKIASASVSFNLYASVFLLTCLSIDRYLAIVHPMKSRLRRTMLVAKVTCIIIWLMAGLASLPAVIHRNVYFIENTNITVCAFHYESRNSTLPIGLGLTKNILGFLFPFLIILTSYTLIWKALKKAYEIQKNKPRNDDIFRIIMAIVLFFFFSWVPHQIFTFLDVLIQLGVIHDCKISDIVDTAMPITICIAYFNNCLNPLFYGFLGKKFKKYFLQLLKYIPPKAKSHSSLSTKMSTLSYRPSDNMSSSAKKPASCFEVE
With B1, the Kd (commonly the equilibrium constant for the complex coming apart) with Angiotensin II, P01019 [1] is 3.57 nM; in the test with Angiotensin II, P01019 [2], 3.32 nM.
